Results on 167 variants are retold here after the Human Domainome abundance scans (Beltran et al. 2025).

± gives the uncertainty stated by the source.

First the molecules themselves.
B1: Ankyrin-1, residues 1405 to 1484; numbered along this chain, P16157 (parent)
chain: MKMAVISEHLGLSWAELARELQFSVEDINRIRVENPNSLLEQSVALLNLWVIREGQNANMENLYTALQSIDRGEIVNMLE

The data set covers variants of B1. The experiment in a line: abundance fitness (aPCA) (normalised: wild type 0, dead -1); higher = more abundant; growth selection in yeast, the domain comes from the species named. To be noted: Homo sapiens.
L10M: the abundance fitness was -0.805 ± 0.27. For L10F, the abundance fitness was -0.706 ± 0.27. E26P: the abundance fitness was -0.371 ± 0.089. E26M: the abundance fitness was -0.189 ± 0.1. Regarding E26H, the abundance fitness is -0.113 ± 0.2. In the case of E26R it was -0.104 ± 0.051. As for E26V, the abundance fitness is -0.233 ± 0.064. Consider E26G, for which the abundance fitness was -0.127 ± 0.039. Turning to E26L, the abundance fitness is -0.153 ± 0.053. N37G: the abundance fitness was -0.166 ± 0.093.

On to N37T, for which the abundance fitness was -0.111 ± 0.18. Regarding N37C, the abundance fitness was -0.314 ± 0.2. The figure for N37Q is -0.444 ± 0.35; for L47D it is -0.743 ± 0.23. Take L47M: the abundance fitness was 0.061 ± 0.11. In the case of L47V it was -0.308 ± 0.066; in that of L47C, -0.061 ± 0.083.

As for L67I, the abundance fitness is -0.156 ± 0.14. For L67V, the abundance fitness was -0.771 ± 0.11. In the case of L67S it was -0.829 ± 0.14; in that of L67G, -0.852 ± 0.097. As to L67E, the abundance fitness is -0.792 ± 0.21. As to K2M, the abundance fitness is -0.132 ± 0.14. As to K2F, the abundance fitness was -0.22 ± 0.11. In the case of K2I, the abundance fitness is -0.003 ± 0.096.

Consider K2H, for which the abundance fitness is -0.271 ± 0.17. In the case of V44F, the abundance fitness stood at 0.182 ± 0.086. For the variant V44K, the abundance fitness was 0.327 ± 0.12. Regarding V44M, the abundance fitness was 0.142 ± 0.084.

On to V44L, for which the abundance fitness stood at 0.014 ± 0.051. In the case of V44D, the abundance fitness is 0.112 ± 0.095. On to V44Q, for which the abundance fitness was 0.18 ± 0.12. As for N77T, the abundance fitness stood at 0.041 ± 0.082.

N77Q: the abundance fitness stood at 0.148 ± 0.11. Regarding D71S, the abundance fitness is -0.213 ± 0.07.

On to D71K, for which the abundance fitness is -0.058 ± 0.079. With D71E, the abundance fitness stood at 0.075 ± 0.075. Take D71G: the abundance fitness came out at 0.095 ± 0.04. D71F: the abundance fitness is -0.627 ± 0.2. Turning to S7C, the abundance fitness was -0.089 ± 0.068. S7K: the abundance fitness was -0.786 ± 0.21. With S7D, the abundance fitness was -0.821 ± 0.16. As for S7T, the abundance fitness was -0.226 ± 0.1. For the variant S7I, the abundance fitness was -0.396 ± 0.1. As for S7Q, the abundance fitness is -0.389 ± 0.12. In the case of E74L it was -0.562 ± 0.11.

Turning to E74F, the abundance fitness was -0.741 ± 0.28.

As for E74R, the abundance fitness was -0.65 ± 0.092. E74A: the abundance fitness was -0.364 ± 0.095.

With E74P, the abundance fitness is -0.264 ± 0.1. N62C: the abundance fitness is -0.126 ± 0.11.

As to E41D, the abundance fitness was found to be 0.007 ± 0.12.

In the case of E41K, the abundance fitness was 0.117 ± 0.094.

For E41M, the abundance fitness was -0.275 ± 0.12. For the variant E41T, the abundance fitness is -0.184 ± 0.072. Consider E41S, for which the abundance fitness was -0.005 ± 0.048. As to E41F, the abundance fitness was -0.28 ± 0.11. E80D: the abundance fitness came to 0.164 ± 0.071. Regarding E80A, the abundance fitness was -0.083 ± 0.081. Consider E80S, for which the abundance fitness is -0.056 ± 0.099. As to E80I, the abundance fitness was -0.682 ± 0.26. The figure for E80F is -0.023 ± 0.1; for E80L it is -0.329 ± 0.12. In the case of N59W it was -0.371 ± 0.056; in that of N59Q, -0.031 ± 0.11. Take N59S: the abundance fitness came out at 0.059 ± 0.062.

Turning to A18T, the abundance fitness was -0.89 ± 0.2. For A18G, the abundance fitness was -0.075 ± 0.048. As for V5G, the abundance fitness was -0.592 ± 0.078.

Consider V5M, for which the abundance fitness was -0.092 ± 0.11. With Q42E, the abundance fitness is -0.926 ± 0.18. Q42T: the abundance fitness was -0.723 ± 0.2. For the variant Q42F, the abundance fitness was -0.899 ± 0.25. As to Q42N, the abundance fitness was -0.882 ± 0.33.

On to I75D, for which the abundance fitness is -0.54 ± 0.39.

For the variant I75Y, the abundance fitness is -0.692 ± 0.36. Consider I75P, for which the abundance fitness was -0.546 ± 0.14.

I75R: the abundance fitness was -0.915 ± 0.14. In the case of H9E it was -0.148 ± 0.16; in that of H9Y, -0.388 ± 0.13; in that of H9M, -0.302 ± 0.12. For H9W, the abundance fitness is -0.251 ± 0.096.

Take H9F: the abundance fitness was -0.249 ± 0.18. On to I6V, for which the abundance fitness is 0.224 ± 0.15. As to W50D, the abundance fitness was -0.653 ± 0.29.

Take W50Q: the abundance fitness is -0.708 ± 0.39. In the case of W50C it was -0.71 ± 0.36; in that of W50R, -0.863 ± 0.12. With W50T, the abundance fitness is -0.823 ± 0.16.

Turning to W50F, the abundance fitness was -0.713 ± 0.28. Consider M3E, for which the abundance fitness was -0.275 ± 0.093. With M3Y, the abundance fitness is -0.708 ± 0.18. On to M3V, for which the abundance fitness is -0.024 ± 0.053. For M3C, the abundance fitness was -0.385 ± 0.07. M3K: the abundance fitness is -0.155 ± 0.13. As to M3G, the abundance fitness was -0.533 ± 0.073. In the case of M3I, the abundance fitness amounted to 0.127 ± 0.11. Regarding M3Q, the abundance fitness is -0.197 ± 0.099.

Take S43I: the abundance fitness was -0.919 ± 0.26. In the case of S43R it was -0.89 ± 0.14; in that of L21G, -0.965 ± 0.17; in that of L21C, -0.727 ± 0.33.

Regarding Y64K, the abundance fitness was -0.473 ± 0.2. As to Y64G, the abundance fitness is -0.274 ± 0.056. For the variant Y64R, the abundance fitness is -0.407 ± 0.056. The figure for A45L is -0.627 ± 0.088; for A45V it is -0.513 ± 0.065. Turning to A45I, the abundance fitness was -0.45 ± 0.14. On to A45N, for which the abundance fitness was -0.226 ± 0.18.

With D27L, the abundance fitness is -0.429 ± 0.077.

On to D27A, for which the abundance fitness is -0.071 ± 0.069. In the case of D27M it was -0.213 ± 0.14; in that of D27I, -0.043 ± 0.094.

For the variant D27R, the abundance fitness was -0.46 ± 0.071.

For the variant D27S, the abundance fitness was -0.127 ± 0.058. For G55L, the abundance fitness is -0.871 ± 0.2. As for G55I, the abundance fitness was -0.687 ± 0.32. As to G55R, the abundance fitness was -0.394 ± 0.078. For G55Q, the abundance fitness was -0.339 ± 0.13. For G55C, the abundance fitness is -0.389 ± 0.17. In the case of E8S it was -0.18 ± 0.061; in that of E8T, -0.162 ± 0.08.

Consider E8C, for which the abundance fitness was -0.624 ± 0.18. As to E8F, the abundance fitness was -0.424 ± 0.11. In the case of E8A it was -0.175 ± 0.064. Take E8R: the abundance fitness is -0.054 ± 0.052. The figure for E8H is -0.398 ± 0.18; for E8Y it is -0.722 ± 0.14; for L40P it is -0.428 ± 0.075. In the case of L40H it was -0.136 ± 0.11; in that of L40R, 0.089 ± 0.059; in that of A66C, 0.016 ± 0.07. As for A66W, the abundance fitness was -0.99 ± 0.32. On to A66M, for which the abundance fitness was -0.332 ± 0.2. In the case of A66F, the abundance fitness is -1.05 ± 0.48.

Regarding A66G, the abundance fitness was -0.197 ± 0.048. Consider A66P, for which the abundance fitness was -0.1 ± 0.066.

A58E: the abundance fitness is -0.192 ± 0.1. On to A58F, for which the abundance fitness is -0.253 ± 0.2. In the case of A58V it was 0.124 ± 0.064; in that of A58M, 0.122 ± 0.17; in that of A58I, -0.008 ± 0.19. On to A58Y, for which the abundance fitness was -0.065 ± 0.22. The figure for W14H is -0.873 ± 0.29; for W14V it is -0.67 ± 0.13. As to W14N, the abundance fitness is -0.865 ± 0.24. On to S69M, for which the abundance fitness is -0.133 ± 0.089. As for S69F, the abundance fitness is -0.341 ± 0.11. As to S69P, the abundance fitness is -0.467 ± 0.13. In the case of S24F, the abundance fitness is -0.837 ± 0.36. Consider S24A, for which the abundance fitness was -0.213 ± 0.056. The figure for S24G is -0.23 ± 0.054.

With S24L, the abundance fitness is -0.776 ± 0.12. With Q56R, the abundance fitness is -0.02 ± 0.046. As for Q56T, the abundance fitness was 0.158 ± 0.12. As to Q56S, the abundance fitness is -0.097 ± 0.07.

As for Q56P, the abundance fitness was -0.052 ± 0.08. As to Q68P, the abundance fitness is -0.767 ± 0.2.

On to Q68Y, for which the abundance fitness was -0.202 ± 0.14. Take Q68G: the abundance fitness was -0.152 ± 0.039. R30N: the abundance fitness is -0.134 ± 0.071.

Turning to R30I, the abundance fitness was -0.356 ± 0.2. Regarding R30P, the abundance fitness was -1.1 ± 0.21.

As for R30D, the abundance fitness is -0.122 ± 0.11.

As for R30L, the abundance fitness was -0.213 ± 0.057. On to R30H, for which the abundance fitness was -0.081 ± 0.22. As for R30V, the abundance fitness is -0.192 ± 0.055.
